Molecular target: T1, BCMA (TNFRSF17), human plasma membrane protein array (human, UniProt Q02223 1-184)
T1 construct: also called B-cell maturation antigen
T1 sequence (looked up): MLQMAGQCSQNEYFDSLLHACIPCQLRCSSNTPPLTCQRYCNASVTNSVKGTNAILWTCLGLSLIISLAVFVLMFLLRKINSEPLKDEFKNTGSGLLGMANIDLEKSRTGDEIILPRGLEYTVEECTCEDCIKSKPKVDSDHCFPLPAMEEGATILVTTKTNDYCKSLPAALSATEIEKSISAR
Test: commercial human plasma membrane protein array

B1: anti-human BCMA single chain antibody variable fragment (scFv) (PI61) (scFv)
scFv: QVQLQESGGGVVQPGRSLRLSCAASGFTFSSYGMHWVRQAPGKGLEWVAVISYDGSNKYYADSVKGRFTISRDNSKNTLYLQMNSLRAEDTAVYYCGGSGYALHDDYYGLDVWGQGTLVTVSSGGGGSGGGGSGGGGSQSALTQPASVSGSPGQSITISCTGTSSDVGGYNYVSWYQQHPGKAPKLMIYDVSNRPSGVSNRFSGSKSGNTASLTISGLQAEDEADYYCSSYTSSSTLYVFGSGTKVTVL
notes: also called PI61 scFv
  binding result: binds
